Test results: article PMC5558906
Like-named read-outs stand apart in the source and are kept apart here.

Columns and labels:
Assay in all cases: EMSA
[1] = target: T1, eIF4G1 (Saccharomyces cerevisiae, UniProt P39935 1-952)
T1 sequence: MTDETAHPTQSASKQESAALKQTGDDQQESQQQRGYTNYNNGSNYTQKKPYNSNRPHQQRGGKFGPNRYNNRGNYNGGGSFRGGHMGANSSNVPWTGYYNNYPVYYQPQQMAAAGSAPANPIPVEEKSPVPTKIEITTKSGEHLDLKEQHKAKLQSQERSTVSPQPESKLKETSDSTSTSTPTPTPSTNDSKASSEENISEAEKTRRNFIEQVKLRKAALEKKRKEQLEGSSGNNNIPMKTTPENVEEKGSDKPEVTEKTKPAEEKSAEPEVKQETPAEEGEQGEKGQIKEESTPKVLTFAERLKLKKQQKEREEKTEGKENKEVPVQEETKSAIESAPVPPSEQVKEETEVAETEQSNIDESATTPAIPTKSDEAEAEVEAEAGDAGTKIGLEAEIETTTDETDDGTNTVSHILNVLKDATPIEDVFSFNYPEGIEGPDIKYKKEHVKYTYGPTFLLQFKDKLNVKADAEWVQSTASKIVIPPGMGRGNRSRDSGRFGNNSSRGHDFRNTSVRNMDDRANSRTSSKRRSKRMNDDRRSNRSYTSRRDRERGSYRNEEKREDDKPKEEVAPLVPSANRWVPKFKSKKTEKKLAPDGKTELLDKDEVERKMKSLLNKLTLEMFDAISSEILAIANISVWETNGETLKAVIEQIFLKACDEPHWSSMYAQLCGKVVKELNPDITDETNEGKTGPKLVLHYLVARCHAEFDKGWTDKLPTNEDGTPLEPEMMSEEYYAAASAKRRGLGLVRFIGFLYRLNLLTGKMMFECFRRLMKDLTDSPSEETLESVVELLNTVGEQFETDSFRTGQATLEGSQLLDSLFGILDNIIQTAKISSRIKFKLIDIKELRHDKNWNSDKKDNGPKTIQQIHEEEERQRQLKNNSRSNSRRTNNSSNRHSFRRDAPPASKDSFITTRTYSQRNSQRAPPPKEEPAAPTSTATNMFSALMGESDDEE

[2] = target: T1, eIF4G1; remark: listed apart in the source
[3] = target: T1, eIF4G1; remark: listed apart in the source

Binder AAAAAAAAAAAAAAAAAAAAAAAAAAAAAAAAAAAAAAAA (ssRNA) [A40] has a binding signal [1] of 17 fold weaker than U40.

B1: U10 in CA repeats (ssRNA)
RNA: GCACACACACACACACACACAUUUUUUUUUUCACACACACACACACACACA
B1: binds [2].

For UUUUUUUUUUUUUUUUUUUUUUUUUUUUUUUUUUUUUUUU (ssRNA) [U40], the binding signal [3] was 17 fold tighter than A40.
